This data set can be described thus: label from the status in PepcDB records.

As to “MKEITIALVGQPNVGKSSLINALSNAHLKVGNFAGVTVDKMEVGLIHKEHQITIIDLPGTYALNDFTTEEKVTKDFLEKGQYDLILNVVDSTNLERNLALSAQLLDTNKKMLLALNMWDEAQKEGIKINTEKLSKELGVVCVPTSARSKEDRLNTELLLDEIVRLYSQNTTNNENIKVPSQSFKESLKYSQSAQRIAQLVISENQQNASFEHTYKIDKILMHKRYGIFIFLGFMFIIFSLSFLIGGGVQKALETGFKFLSDGIKENVANEDLASLVGDGIIGGVGATVSFLPLIVVLYFGISLLETTGYMSRVAFLLDGILHKFGLHGKSFIPLITGFGCSVPAYMATRTLQNYNERLITLFVIGFMSCSARLPIYVLFVGSFFPSSSAGFVLFCIYILGAVVALVMAKLLKLSVFKGQTESFIMEMPKYRFPSWRMVYFSIYTKSLSYLKKAGTYILVGAILIWFMSQYPKSDAAMKAYKQESLLVNKDTTLSSEAKEEKLKELKTELDKKNLKNSIVGRGGAYLEKVFSPMDFDWRLSVSLVTGFMAKEVVVSTLGVLFSLGDQNEKSDAFRGILRKEVSVPSGIAFIVFVMFYIPCFAATITFGREAGGIKFVAYLFIFTTVVAYAFSLIAFYATQILV”, the protein production result is “failed”.

On to “MKELLKLDFFIQKKYIKSSIIVFLFLGITFALTQGMNYLYTMGTFIVFYLTIIPIEVERKSKFNIYLNSLPNKKSNYIYSKYLSTLIYIIVVNLFLYLFCTILGVISGSDFTLTLRAILPNIIVQLFYVSLTLPVYMIISHKFYRVVNIIFTILIMMISSILFNSLENENLQVLFNITNGVYGLAFGILALIISLIVSLNIYKKSEVS”, for which the protein production entry is “failed”.

As for “MKELSDVILDRIDAICDEADLLFEDEKSEEAIAKYNEALTLLPEPIEEYEPSAWLISSIGDVYFFDEEYEKALAQFEHAMGCIDSEDNPYLLLRAGQCHFELGQMQDAEDTMHEAYLIEGEEIFEEEDPKYWEFLKSKITIVDLEHHHHHH”, the protein production result was “not failed”.

As for “MKENEYRFIMRIFVLVSFTAVLMIAVPFLDTIAFACAFAYMTEPFFNAVRRYAGRTLGAILSILMVTVPALSLVVLILSDVVEFLNTLNVPSLVDTTIQFVNYLGLQNIAQEDLNRILSELWTFLKPTINKMAEQIYGIPLLFIKGLITVFLTYYFLKDGHRFKDAIMPHVPEVYHVQTELFIRKLNEAYKNLFVVNALTSFTVGLISIAGFWAIGLPNPVTLGALSGILTLLPIVGGWTIYMPLSLYYIAVGMYTKAILLFGFGVIFLSLAPDFAIRPRLVNHESDIHPAIALVAFLMGPLALGVTGFALGPLIMGTFDAIFRVKNGKDSIINLK”, the protein production entry is “failed”.

Turning to “MKEQSITKGFAILSIASIVAKLLSLIYVPFLTRIVGSVGMGIYGKTYDIFVFVYALTNVGLQTAISKYVSELDAVGNYKDALRAFKISRAFLLVVGTIFTIVLMLSANFIASMSQTPQMVYPIIFLAPTIMITTVLVTYKGYFQGRSQATPIAIATVIEQVANVFLSLLCAYFLIKKSVSLGVAGGTVGSSAGALMAVLYLIYIYNIYGVEKEAKRKQEPGVRRITGKKIARTLFKYGLPITLSTGLQNLGNIIDMLTVSNRLVDAANFSQSDANALYGYFSTRYKILINVPMVFITSLGYMALPAISRAYALKDKKEIKSKINFSMRVTYLLSIPSAFGLALLSENIYRYIFADSNGYKMMVIGAAMIPLTAIVLMQNVILQSVSQFYYVLFTLALSIVVKFTLNMTLVANPDINIYGAVISGMVAFVISLVLNHFRMKKTLKMKISMLKYALKPLLASIYMGIGIILSKYVISLFIDFDKLSLILGIAILLVIIAIGAFMYLHAIIILGGIKKEDIEEISPKLLRVMPRFLRKNIK”, the protein production entry was “failed”.

Turning to “MKETTKKIVSKRLTKVVALVLMCVICTSGVITVTALSRDVTVLDGDKMYGLTTLNANPDAVLDRLGIEVSPEDSIEFDEAAAKITIKRAFDVTVEVDGKAKTVTMTEGTVADALEASKVDLKEGDQVVPFAATSLVPDMEIKVARGVEVTVEADGKSVKVKVPVTATVEAAVAAADFTVGKDDVLSAEKTDTVSAGMTIKLDRVSYRETETTQEIPYESTQEETGELDLGDTQVKTAGENGARTIVTREKLVNGQVVETEEISSTVVKEPVNEVLLVGTREVETAPSYGAASTSGGVLVDHDGNQIAYTAVYTGSATAYTAPAGSFTATGRPAQYGNVAVNPDLIPYGSRLYICSPDGSYVYGYAVAADTGGALMSGSALVDVYFDTLSECYGFGRRTLSVYILA”, the protein production entry is listed as “failed”.

Take “MKFALQINEGPYQHQASDSAYQFAKAALEKGHEIFRVFFYHDGVNNSTRLTTPPQDDRHIVNRWAELAEQYELDMVVCVAAAQRRGIVDEGEASRNGKDATNIHPKFRISGLGQLVEAAIQADRLVVFGD”: the protein production entry was “not failed”.

Take “MKFDDSKPIYKQIVHYIHTEIVTGTYEAGDKLLSVRELATKLEVNPTTIQRAYAELEEAGIIFTVRGTGKYLTEDKRRIEQLENHIAKQLTENFISEMSKLGINKEKIIAWVKKVEEVEVNASGK”: the protein production result is given as “failed”.

For “MKFDVIIIGGSYAGLSAALQLGRARKNILLVDAGERRNRFASHSHGFLGQDGKAPGEIIAEARRQIERYPTIHWVEGRVTDAKGSFGEFIVEIDGGRRETAGRLILAMGVTDELPEIAGLRERWGSAVFHCPYCHGYELDQGKIGVIAASPMAIHHALMLPDWGETTFFTNGIVEPDADQHALLAARGVRVETTRIREIAGHADVVLADGRSIALAGLFTQPKLRITVDWIEKLGCAVEEGPMGSTIVTDPMKQTTARGIFACGDVARPAGSVALAVGDGAMAGAAAHRSILFPEMR”, the protein production result is on record as “not failed”.

“MKFFFLLQIALILLSNSSLLFGQSPPKEKEDSLLLYKEGKFKEAILNTLEEIRLNPSNLDARTILIWSLIAIGEYKRAEKEAIIGLGIKKHDIRIIQALGEAYFFQKNYDNALKYFQEYISLDSKGARIIKVYNLIADSFYELKRYNEADFAYEHALRFSPNNQNLLIKLARSRINAKNKILAEEALIKILTISPNNLEAKNLLEELKKSNNKP”: the protein production entry was “failed”.

“MKFGPRRPADAIGGVTVHSLRQNGLLLKKGTTIGPAEVAALEKAGIAEIVVVQLEPGDVSEDVAAADVAGAVAGDGITVDRAFTGRANLFAGRTGVLVIDRAVVDRINAVDEAITLATLPAFKPVVEGEMVATVKLIPFGVESRLRDAAVAAAQGSALRVAPYVIKRVGVVSTLLPGLAPKVIDKTLRVTAERLAPAGAEIIAERRVAHEEAALSAAIKELLGLGADMVIVFGASAIADRRDVIPAAIGTVGGTISHFGMPVDPGNLLLVGSVSGVPVLGAPGCARSPVENGFDWVLMRLLAGLTVTRADITAMGVGGLLMEIVTRPQPRVPVAESGRNVAAIVLAAGRGTRMGGPNKLLADLNGKPLVRIVAEQALASQAARTIIVTGHQAGEVEAALYGLDLTFVHNPDFAQGIASSVKTGIAALGEDADGAIVCLGDMPLIDAALIDRMITAFDPDRGALIVVPVAEGRRGNPVLWSRRFFTELMTLGGDVGARHLIAKHGEAVTEVPVEGEAAFLDIDTPQALDEARRG”: the protein production result is “failed”.

Regarding “MKFISTSLLLMLLVSSLSPVQGVLEVYYTSLRCRCVQESSVFIPRRFIDRIQILPRGNGCPRKEIIVWKKNKSIVCVDPQAEWIQRMMEVLRKRSSSTLPVPVFKRKIP”, the protein production entry is “failed”.

For the sequence “MKFKTNKLSLNLVLASSLLAASIPAFAVTGDTDQPIHIESDQQSLDMQGNVVTFTGNVIVTQGTIKINADKVVVTRPGGEQGKEVIDGYGKPATFYQMQDNGKPVEGHASQMHYELAKDFVVLTGNAYLQQVDSNIKGDKITYLVKEQKMQAFSDKGKRVTTVLVPSQLQDKNNKGQTPAQKKGN”, the protein production result is listed as “not failed”.

In the case of “MKFLDNIKKNQSLMRFIETTQSHMVTAEIGNSSVVVAYYLLLSLFPLLIAVGNVLPYLRIDPNSVLPYIAEAIPKDVYKNLEPAIRSLLTQRSGGLLSVSALAAFWSASQSINALQNAMNKAFGVEQRKNFILVRVVSFLVILLFMVAIVGVVVILGLGQYIIELLQPIFHYSTSVIDTFQALKWPLTTVVLLVIMCLIYAVVPNRKLSLRSILPGAIFSTVGWMLLSQIFGLYVKYFSSRIASYQIIGSFIILMLWLNFAATIIILGAIVNAVVDEYLSGDKEKKQPSFEQRLFRWFKKKK”, the protein production result is “failed”.
